Reference: the supplement of paper PMC7877785
± gives the uncertainty stated by the source.

Assay: self-splicing fitness, log relative to wild type (ln ratio); higher = more splicing; Tetrahymena group I intron in knt gene, E. coli kanamycin selection, DiMSum; sequences stand for … in CUCUCU…GGAGGGAAAAGUUAUCAGGCAUGCACCUGGUAGCUAGUCUUUAAACCAAUAGAUUGCAUCGGUUUAAAAGGCAAGACCGUCAAAUUGCGGGAAAGGGGUCAACAGCCGUUCAGUACCAAGUCUCAGGGGAAACUUUGAGAUGGCCUUGCAAAGGGUAUGGUAAUAAGCUGACGGACAUGGUCCUAACCACGCAGCCAAGUCCUAAGUCAACAGAUCUUCUGUUGAUAUGGAUGCAGUUCACAGACUAAAUGUCGGUCGGGGAAGAUGUAUUCUUCUCAUAAGAUAUAGUCGGACCUCUCCUUAAUGGGAGCUAGCGGAUGAAGUGAUGCAACACUGGAGCCGCUGGGAACUAAUUUGUAUGCGAAAGUAUAUUGAUUAGUUUUGGAGUACUCGUGGUCG
In short: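 Library with all eight P1ex-region intron nucleotides randomised, intron inside the knt kanamycin-resistance gene on pET-22b(+), in E. coli BL21(DE3). Cells grew overnight at 37°C or 30°C on LB agar with or without 25 μg/mL kanamycin (plus 100 μg/mL carbenicillin, 50 μM IPTG, 0.2% rhamnose), in six replicate transformations. Pooled colonies were amplicon-sequenced on Illumina HiSeq 2500. DiMSum fitness is the error-weighted combination of wild-type-normalised replicate fold changes, kanamycin versus none.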

Sequence | self-splicing fitness (ln) (30 °C) | self-splicing fitness (ln) (37 °C)
UGGGAGCAAUAUUACGCUUC | -1.91 ± 0.36 | –
UUUAAGCAAUAUUACGCUUC | -2.24 ± 0.35 | –
GCAUAGCAAUAUUACGACAG | -3.41 ± 0.26 | -2.71 ± 0.33
CACGAGCAAUAUUACGCUCG | -4.11 ± 0.39 | -1.3 ± 0.22
CGUGAGCAAUAUUACGUACG | – | -0.531 ± 0.23
AUCCAGCAAUAUUACGCCCA | -0.76 ± 0.14 | -0.212 ± 0.15
UGACAGCAAUAUUACGAGUA | -2.37 ± 0.17 | -0.712 ± 0.11
UCAUAGCAAUAUUACGGAAC | -4.02 ± 0.47 | –
GGGGAGCAAUAUUACGUCUU | -1.91 ± 0.12 | -0.96 ± 0.18
GGAGAGCAAUAUUACGCGAA | -2.02 ± 0.24 | -2.72 ± 0.36
UCCGAGCAAUAUUACGGUUA | -0.525 ± 0.058 | -0.174 ± 0.063
CCGAAGCAAUAUUACGGUUG | -1.84 ± 0.059 | -0.955 ± 0.072
UCCCAGCAAUAUUACGUAGA | -0.0439 ± 0.054 | 0.435 ± 0.073
CUCAAGCAAUAUUACGAUAC | -1.63 ± 0.18 | –
GACGAGCAAUAUUACGGCGC | -1.79 ± 0.093 | -0.8 ± 0.11
CCUGAGCAAUAUUACGGGGC | -3.49 ± 0.28 | –
CUUGAGCAAUAUUACGGAUC | – | -1.45 ± 0.31
CCUUAGCAAUAUUACGCUCC | – | -1.44 ± 0.5
AGCAAGCAAUAUUACGUGGG | -3.44 ± 0.12 | -2.37 ± 0.16
GCGCAGCAAUAUUACGUGUG | -3.2 ± 0.12 | -2.65 ± 0.15
UACGAGCAAUAUUACGCCUU | -3.54 ± 0.43 | –
GCAAAGCAAUAUUACGGGCA | -1.3 ± 0.085 | -0.907 ± 0.079
UUGGAGCAAUAUUACGGUAA | -1.27 ± 0.26 | -1.01 ± 0.27
AUCUAGCAAUAUUACGACGA | -0.367 ± 0.12 | -0.44 ± 0.12
GUCCAGCAAUAUUACGCGUU | -0.325 ± 0.078 | 0.304 ± 0.1
UGAGAGCAAUAUUACGGCAA | -1.61 ± 0.33 | -1.15 ± 0.18
CCAGAGCAAUAUUACGGUAU | -3.47 ± 0.2 | -2.75 ± 0.26

Sequence | self-splicing fitness (ln) (30 °C) | self-splicing fitness (ln) (37 °C)
GGGCAGCAAUAUUACGCGGU | -3.4 ± 0.19 | -1.77 ± 0.27
AACUAGCAAUAUUACGUCAG | -3.51 ± 0.18 | -1.57 ± 0.15
GUAGAGCAAUAUUACGACUC | 0.512 ± 0.23 | 0.484 ± 0.38
ACCAAGCAAUAUUACGGAGC | -3.33 ± 0.23 | -3.2 ± 0.33
AUUUAGCAAUAUUACGUAUA | -2.53 ± 0.34 | -1.48 ± 0.21
AAUUAGCAAUAUUACGUACG | -1.75 ± 0.11 | -0.862 ± 0.12
ACGUAGCAAUAUUACGUAAC | -3.5 ± 0.37 | -2.46 ± 0.48
AUUGAGCAAUAUUACGUGAG | -2.08 ± 0.11 | -1.97 ± 0.14
UCCUAGCAAUAUUACGUAAU | -2.99 ± 0.15 | -2.37 ± 0.18
CUCUAGCAAUAUUACGUGGC | -3.7 ± 0.22 | -2.82 ± 0.24
UAACAGCAAUAUUACGCUCU | -1.12 ± 0.073 | -0.498 ± 0.08
UUAAAGCAAUAUUACGAGGC | -3.94 ± 0.37 | -2.36 ± 0.29
CACAAGCAAUAUUACGGACA | -2.34 ± 0.12 | -2.29 ± 0.12
GUCAAGCAAUAUUACGGGUA | -2.91 ± 0.12 | -1.45 ± 0.076
UUAUAGCAAUAUUACGAAGC | -2.27 ± 0.42 | –
CGAUAGCAAUAUUACGAGCU | -3.42 ± 0.4 | -3.09 ± 0.35
GGUAAGCAAUAUUACGGUAU | -1.32 ± 0.074 | -1.44 ± 0.11
CAUCAGCAAUAUUACGCAAG | -0.655 ± 0.065 | -0.304 ± 0.065
UUCGAGCAAUAUUACGCACA | -1.76 ± 0.25 | -1.45 ± 0.28
AGUGAGCAAUAUUACGCCUC | -1.98 ± 0.24 | –
UGGUAGCAAUAUUACGUAAC | -2.08 ± 0.45 | –
GACUAGCAAUAUUACGGGCG | -0.65 ± 0.061 | -0.282 ± 0.071
UACCAGCAAUAUUACGCCUU | -0.707 ± 0.066 | -0.62 ± 0.074
CUCAAGCAAUAUUACGGUGA | -2.9 ± 0.12 | -1.29 ± 0.12
UGGAAGCAAUAUUACGGGGC | -3.24 ± 0.44 | -1.35 ± 0.26
UAUCAGCAAUAUUACGGUCU | -0.719 ± 0.092 | -0.878 ± 0.11
CGACAGCAAUAUUACGGAUA | -2.09 ± 0.14 | -1.91 ± 0.15

Sequence | self-splicing fitness (ln) (30 °C) | self-splicing fitness (ln) (37 °C)
CUGCAGCAAUAUUACGAUAC | -2.99 ± 0.34 | –
UCACAGCAAUAUUACGGUCA | -0.0483 ± 0.085 | 0.318 ± 0.099
UGUCAGCAAUAUUACGGCGG | -0.922 ± 0.084 | 0.0377 ± 0.12
UUUAAGCAAUAUUACGGUGU | -3.85 ± 0.28 | -2.3 ± 0.35
ACAAAGCAAUAUUACGUCAU | -3.08 ± 0.12 | -2.4 ± 0.14
ACGAAGCAAUAUUACGGUAU | -2.57 ± 0.093 | -1.27 ± 0.091
AUGUAGCAAUAUUACGUCGU | -3.28 ± 0.24 | -0.241 ± 0.12
AGUGAGCAAUAUUACGCGUC | -1.51 ± 0.3 | -2.62 ± 0.45
CUCGAGCAAUAUUACGGGUG | -2.04 ± 0.077 | -1.88 ± 0.095
CUCUAGCAAUAUUACGGACG | -0.959 ± 0.14 | -0.0675 ± 0.16
GCGCAGCAAUAUUACGAGUA | -2.36 ± 0.11 | -0.845 ± 0.096
CAAUAGCAAUAUUACGGAUA | -3.03 ± 0.48 | -2.77 ± 0.35
GACUAGCAAUAUUACGUAAA | -0.826 ± 0.097 | 0.0101 ± 0.12
AAUAAGCAAUAUUACGACUC | 0.0667 ± 0.14 | 0.341 ± 0.2
CGUGAGCAAUAUUACGCUCU | -1.76 ± 0.36 | –
GAUAAGCAAUAUUACGCUAC | -2.85 ± 0.4 | -2.31 ± 0.34
GCUAAGCAAUAUUACGCCCG | -0.889 ± 0.11 | -0.34 ± 0.17
GCAUAGCAAUAUUACGCGGC | -3.32 ± 0.33 | -2.38 ± 0.34
UUAUAGCAAUAUUACGACGA | -0.378 ± 0.098 | 0.212 ± 0.1
GUUUAGCAAUAUUACGUGUU | -2.4 ± 0.13 | -2.35 ± 0.14
UCCGAGCAAUAUUACGGGCG | -3.47 ± 0.35 | -1.68 ± 0.36
UAUAAGCAAUAUUACGAUGU | -2.49 ± 0.11 | -1.71 ± 0.12
AGAUAGCAAUAUUACGGUGA | -1.9 ± 0.2 | -0.858 ± 0.17
CUAAAGCAAUAUUACGAUCU | -4.75 ± 0.23 | -2.5 ± 0.18
ACUGAGCAAUAUUACGUACA | -1.96 ± 0.24 | -0.524 ± 0.17
CUUGAGCAAUAUUACGAACC | – | -1.54 ± 0.44
